A word on the Kd: it is a measure of binding affinity in units of concentration.

In PMC7416497 one finds Kd data, which are given here for one molecule.

The data set concerns the target T1, ETS1 ΔN279 (UniProt P14921 279-441).
T1 sequence: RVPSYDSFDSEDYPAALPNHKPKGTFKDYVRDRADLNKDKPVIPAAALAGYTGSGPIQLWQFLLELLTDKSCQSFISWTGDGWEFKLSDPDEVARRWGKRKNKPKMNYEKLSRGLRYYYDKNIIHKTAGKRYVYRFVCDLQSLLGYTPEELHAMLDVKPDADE
The experiment in a line: EMSA. (In EMSA bound probe runs differently from free probe, usually more slowly.)

B1: SC1 (dsDNA)
DNA 1: TCGACGGCCAAGCCGGAAGTGAGTGCC
DNA 2: TCGAGGCACTCACTTCCGGCTTGGCCG
Turning to B1, binding was put at a Kd of 0.4 nM.
